Experimental data published in US20250215083A1 (JIANGSU HENGRUI PHARMACEUTICALS, published 2025).
Read-outs that look alike come from different tables or passages of the source.

Experiments:
human GPRC5D [1] = biological target: T1, human GPRC5D (human, UniProt Q9NZD1 1-345); assay: FACS, MM.1R cells
T1 construct: whole, on cells; also called membrane surface GPRC5D
Procedure: (§1) To test the capacity of the GPRC5D/CD3 bispecific antibodies of the present disclosure to bind to GPRC5D, a flow cytometry assay was used in this test example to measure the capacity of the GPRC5D/CD3 bispecific antibodies to bind to the human multiple myeloma cell line MM.1R (ATCC® CRL-2975), which expresses GPRC5D, and to a stably transfected cell strain CHOK1-cynoGPRC5D, which expresses cynomolgus monkey GPRC5D. The specific procedure was as follows: The cells described above were cultured in complete culture medium containing 10% FBS, incubated in a 37° C., 5% CO₂ incubator for 2 days, and added to a cell plate at 1×10⁵ cells/well. The plate was centrifuged at 300 g for 5 min and washed once with 1% BSA. The antibodies were serially diluted to 8 concentrations and added to the cell plate at 100 μL/well. The plate was incubated at 4° C. for 1 h and washed once with 1% BSA. […] The plate was washed three times with 1% BSA, PBS was added at 100 μL/well, and plate reading was performed.

human GPRC5D [2] = biological target: T1, human GPRC5D; assay: FACS, MM.1R cells; remark: listed apart in the source
Procedure: as §1

cynomolgus monkey GPRC5D [3] = biological target: T2, cynomolgus monkey GPRC5D (cynomolgus monkey); assay: FACS, CHOK1-cynoGPRC5D cells
T2 construct: whole, on cells; also called CynoGPRC5D; cynoGPRC5D
Procedure: as §1

cynomolgus monkey GPRC5D [4] = biological target: T2, cynomolgus monkey GPRC5D; assay: FACS, CHOK1-cynoGPRC5D cells; remark: listed apart in the source
Procedure: as §1

hCTLA4 = biological target: T3, hCTLA4 (human, UniProt P16410 36-161); assay: ELISA per WO2021139758 Test Example 4
T3 construct: purchased from Sino biology
T3 sequence (P16410 36-161 limits assumed): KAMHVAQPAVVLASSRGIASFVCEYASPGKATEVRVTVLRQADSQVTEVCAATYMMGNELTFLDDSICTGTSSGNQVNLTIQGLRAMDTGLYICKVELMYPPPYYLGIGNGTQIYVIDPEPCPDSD

hPDL1 = biological target: T4, hPDL1 (human, UniProt Q9NZQ7 19-238); assay: ELISA per WO2021139758 Test Example 4
T4 construct: purchased from Sino biology
T4 sequence (Q9NZQ7 19-238 limits assumed): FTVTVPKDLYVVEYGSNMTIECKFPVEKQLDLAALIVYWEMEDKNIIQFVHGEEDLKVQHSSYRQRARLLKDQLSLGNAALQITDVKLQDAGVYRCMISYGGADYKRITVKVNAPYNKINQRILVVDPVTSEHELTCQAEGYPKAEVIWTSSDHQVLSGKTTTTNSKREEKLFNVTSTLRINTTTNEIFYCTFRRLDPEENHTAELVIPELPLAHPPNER

T1 sequence (Q9NZD1 whole entry): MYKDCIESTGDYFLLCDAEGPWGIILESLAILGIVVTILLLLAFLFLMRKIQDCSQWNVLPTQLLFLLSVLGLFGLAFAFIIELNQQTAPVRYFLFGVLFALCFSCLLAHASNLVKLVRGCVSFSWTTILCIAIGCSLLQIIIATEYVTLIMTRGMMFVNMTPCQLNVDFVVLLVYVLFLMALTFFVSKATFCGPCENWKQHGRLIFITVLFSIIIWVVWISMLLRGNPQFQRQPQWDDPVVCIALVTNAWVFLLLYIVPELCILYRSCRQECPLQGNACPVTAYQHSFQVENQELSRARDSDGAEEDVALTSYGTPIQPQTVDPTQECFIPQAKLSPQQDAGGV

EC50 (human GPRC5D [1]) [nM]	EC50 (human GPRC5D [2]) [nM]	Max (human GPRC5D [2])	EC50 (cynomolgus monkey GPRC5D [3]) [nM]	EC50 (cynomolgus monkey GPRC5D [4]) [nM]	Max (cynomolgus monkey GPRC5D [4])	EC50 (hCTLA4) [nM]	EC50 (hPDL1) [nM]	Binder
–	–	–	–	–	–	16.5	1.6	PL-1 (bispecific antibody) chain 1: not shown chain 2: DIVLTQSPASLAVSPGQRATITCRASESVSIHGTHLMHWYQQKPGQPPKLLIYAASKLESGVPARFSGSGSGTDFTLTINPVEAEDTANYYCQQSFEDPLTFGQGTKLEIKGGGGSGIPPKIECLPIDISIDEGKVLTVASAFTGEPTPEVTWSTGGRKIHSQEQGRFHIENTDDLTTLIIKDVQKQDGGLYTLTLRNEFGSDSATVNIHIRSI chain 3: not shown chain 4: not shown
–	–	–	–	–	–	7.9	0.6	PL-3 (bispecific antibody) chain 1: not shown chain 2: DIVLTQSPASLAVSPGQRATITCRASESVSIHGTHLMHWYQQKPGQPPKLLIYAASKLESGVPARFSGSGSGTDFTLTINPVEAEDTANYYCQQSFEDPLTFGQGTKLEIKGGGGSGIPPKIECLPIDISIDEGKCLTVASAFTGEPTPEVTWSTGGRKIHSQEQGRFHIENTDDSTTLTIKDVQKQDGGLYTLTLRNEFGSDSATVNIHIRSI chain 3: not shown chain 4: not shown
–	–	–	–	–	–	8	0.5	PL-2 (bispecific antibody) chain 1: not shown chain 2: DIVLTQSPASLAVSPGQRATITCRASESVSIHGTHLMHWYQQKPGQPPKLLIYAASKLESGVPARFSGSGSGTDFTLTINPVEAEDTANYYCQQSFEDPLTFGQGTKLEIKGGGGSGIPPKIECLPIDISIDEGKVLTVASAFTGEPTPEVTWSTGGRKIHSQEQGRFHIENTDDSTTLTIKDVQKQDGGLYTLTLRNEFGSDSATVNIHIRSI chain 3: not shown chain 4: not shown

The next lines start with the binder.

Binder	EC50 (human GPRC5D [1]) [nM]	EC50 (human GPRC5D [2]) [nM]	Max (human GPRC5D [2])	EC50 (cynomolgus monkey GPRC5D [3]) [nM]	EC50 (cynomolgus monkey GPRC5D [4]) [nM]	Max (cynomolgus monkey GPRC5D [4])	EC50 (hCTLA4) [nM]	EC50 (hPDL1) [nM]
F4-4 (bispecific antibody, formula 4) heavy 1: not shown light 1: not shown heavy 2: EVQLVESGGGLVQPGGSLRLSCAASGFTFTDYYLSWVKQAPGKGLEWVAFIRNRAKGYTTEYSASVKGRFTISRDNSKNSLYLQMNSLRAEDTAVYYCARMGGKGWHFDVWGQGTTVTVSSASTKGPSVFPLAPSSKSTSGGTAALGCLVKDYFPEPVTVSWNSGALTSGVHTFPAVLQSSGLYSLSSVVTVPSSSLGTQTYICNVNHKPSNTKVDKKVEPKSCDKTHTCPPCPAPEAAGGPSVFLFPPKPKDTLMISRTPEVTCVVVDVSHEDPEVKFNWYVDGVEVHNAKTKPREEQYNSTYRVVSVLTVLHQDWLNGKEYKCKVSNKALPAPIEKTISKAKGQPREPQVCTLPPSRDELTKNQVSLSCAVKGFYPSDIAVEWESNGQPENNYKTTPPVLDSDGSFFLVSKLTVDKSRWQQGNVFSCSVMHEALHNHYTQKSLSLSPGK light 2: DVVMTQSPLSLPVTPGEPASISCRSSQSIVHSNRNTYLEWYLQKPGQSPKLLIYKVSNRFSGVPDRFFGSGSGTDFTLKINRVEAEDVGVYYCFQGSHVPFTFGGGTKVEIKRTVAAPSVFIFPPSDEQLKSGTASVVCLLNNFYPREAKVQWKVDNALQSGNSQESVTEQDSKDSTYSLSSTLTLSKADYEKHKVYACEVTHQGLSSPVTKSFNRGEC	12.1	12.1	13600	3.15	3.15	74900	–	–
F4-5 (bispecific antibody, formula 4) heavy 1: not shown light 1: not shown heavy 2: EVQLVESGGGLVQPGGSLRLSCAASGFTFTDYYLSWVKQAPGKGLEWVAFIRNRAKGYTTEYSASVKGRFTISRDNAQNSLYLQMNSLRAEDTAVYYCARMGGKGWHFDVWGQGTTVTVSSASTKGPSVFPLAPSSKSTSGGTAALGCLVKDYFPEPVTVSWNSGALTSGVHTFPAVLQSSGLYSLSSVVTVPSSSLGTQTYICNVNHKPSNTKVDKKVEPKSCDKTHTCPPCPAPEAAGGPSVFLFPPKPKDTLMISRTPEVTCVVVDVSHEDPEVKFNWYVDGVEVHNAKTKPREEQYNSTYRVVSVLTVLHQDWLNGKEYKCKVSNKALPAPIEKTISKAKGQPREPQVCTLPPSRDELTKNQVSLSCAVKGFYPSDIAVEWESNGQPENNYKTTPPVLDSDGSFFLVSKLTVDKSRWQQGNVFSCSVMHEALHNHYTQKSLSLSPGK light 2: DVVMTQSPLSLPVTPGEPASISCRSSQSIVHSNRNTYLEWYLQKPGQSPKLLIYKVSNRFSGVPDRFFGSGSGTDFTLKINRVEAEDVGVYYCFQGSHVPFTFGGGTKVEIKRTVAAPSVFIFPPSDEQLKSGTASVVCLLNNFYPREAKVQWKVDNALQSGNSQESVTEQDSKDSTYSLSSTLTLSKADYEKHKVYACEVTHQGLSSPVTKSFNRGEC	12.8	12.8	13400	3.16	3.16	71300	–	–
